In test [1] the target is Kv1.3 potassium ion channel (UniProt P22001 1-575). In words: cell-based or functional assay.
Test [2] concerns the target integrin β7 on human β7-high T cells (human, UniProt P26010 20-798; P13612 34-1032). Description: cell-based or functional assay.
In the next test the target is T1, Recombinant protein α4β7 (UniProt P13612 34-977; P26010 20-723).
T1 construct: Coated on the ELISA plate at 100 ng per well; also called integrin β7
In words: ELISA on coated recombinant α4β7 (100 ng per well). In general terms: An ELISA detects its analyte on a solid surface through an enzyme-linked reagent.

Where “and” joins values, the source holds several entries; their conditions need not be identical. Equal values may be shown once.

T1 sequence (P13612 34-977, chain 1 of 2): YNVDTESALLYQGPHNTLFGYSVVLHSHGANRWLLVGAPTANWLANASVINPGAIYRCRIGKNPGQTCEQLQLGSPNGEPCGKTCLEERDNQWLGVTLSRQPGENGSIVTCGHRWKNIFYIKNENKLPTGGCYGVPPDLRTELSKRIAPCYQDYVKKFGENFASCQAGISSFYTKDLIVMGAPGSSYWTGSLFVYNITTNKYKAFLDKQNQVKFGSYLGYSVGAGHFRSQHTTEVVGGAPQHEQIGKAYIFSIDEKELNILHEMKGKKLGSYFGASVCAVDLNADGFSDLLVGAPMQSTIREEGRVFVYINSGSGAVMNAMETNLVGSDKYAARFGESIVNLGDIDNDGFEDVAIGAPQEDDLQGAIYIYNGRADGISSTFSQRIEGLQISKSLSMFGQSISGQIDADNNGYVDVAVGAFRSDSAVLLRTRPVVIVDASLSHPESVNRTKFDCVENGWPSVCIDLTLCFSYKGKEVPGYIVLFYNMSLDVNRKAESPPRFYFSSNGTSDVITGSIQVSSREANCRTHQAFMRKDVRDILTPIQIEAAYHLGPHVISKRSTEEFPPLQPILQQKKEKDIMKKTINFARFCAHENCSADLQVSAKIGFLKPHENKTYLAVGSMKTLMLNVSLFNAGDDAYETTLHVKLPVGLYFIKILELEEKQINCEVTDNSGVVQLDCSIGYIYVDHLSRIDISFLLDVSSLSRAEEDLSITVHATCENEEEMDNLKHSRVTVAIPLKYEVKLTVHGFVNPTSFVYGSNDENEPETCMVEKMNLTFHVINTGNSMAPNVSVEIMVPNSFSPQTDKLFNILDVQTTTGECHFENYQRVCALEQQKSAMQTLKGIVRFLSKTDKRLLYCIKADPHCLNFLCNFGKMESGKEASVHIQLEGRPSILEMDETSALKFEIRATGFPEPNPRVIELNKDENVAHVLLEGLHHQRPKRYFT
T1 sequence (P26010 20-723, chain 2 of 2): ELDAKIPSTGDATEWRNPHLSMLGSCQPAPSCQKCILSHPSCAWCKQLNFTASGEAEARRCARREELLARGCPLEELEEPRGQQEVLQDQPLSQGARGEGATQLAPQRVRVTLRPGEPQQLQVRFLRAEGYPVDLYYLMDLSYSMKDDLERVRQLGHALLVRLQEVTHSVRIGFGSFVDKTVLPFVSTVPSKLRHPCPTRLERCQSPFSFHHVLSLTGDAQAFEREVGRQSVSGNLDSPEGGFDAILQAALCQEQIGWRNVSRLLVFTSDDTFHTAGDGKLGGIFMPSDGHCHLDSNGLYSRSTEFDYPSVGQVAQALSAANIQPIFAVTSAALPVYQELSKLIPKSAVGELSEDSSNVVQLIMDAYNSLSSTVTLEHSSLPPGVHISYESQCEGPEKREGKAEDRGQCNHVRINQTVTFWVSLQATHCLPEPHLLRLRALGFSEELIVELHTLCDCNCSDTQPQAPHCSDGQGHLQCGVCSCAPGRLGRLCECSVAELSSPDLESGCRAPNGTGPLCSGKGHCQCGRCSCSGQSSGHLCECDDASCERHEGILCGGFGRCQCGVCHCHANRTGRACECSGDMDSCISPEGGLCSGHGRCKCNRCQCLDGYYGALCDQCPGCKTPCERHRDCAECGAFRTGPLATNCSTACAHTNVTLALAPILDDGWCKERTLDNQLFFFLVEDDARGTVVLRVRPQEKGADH
Sequence of Kv1.3 potassium ion channel (P22001 whole entry): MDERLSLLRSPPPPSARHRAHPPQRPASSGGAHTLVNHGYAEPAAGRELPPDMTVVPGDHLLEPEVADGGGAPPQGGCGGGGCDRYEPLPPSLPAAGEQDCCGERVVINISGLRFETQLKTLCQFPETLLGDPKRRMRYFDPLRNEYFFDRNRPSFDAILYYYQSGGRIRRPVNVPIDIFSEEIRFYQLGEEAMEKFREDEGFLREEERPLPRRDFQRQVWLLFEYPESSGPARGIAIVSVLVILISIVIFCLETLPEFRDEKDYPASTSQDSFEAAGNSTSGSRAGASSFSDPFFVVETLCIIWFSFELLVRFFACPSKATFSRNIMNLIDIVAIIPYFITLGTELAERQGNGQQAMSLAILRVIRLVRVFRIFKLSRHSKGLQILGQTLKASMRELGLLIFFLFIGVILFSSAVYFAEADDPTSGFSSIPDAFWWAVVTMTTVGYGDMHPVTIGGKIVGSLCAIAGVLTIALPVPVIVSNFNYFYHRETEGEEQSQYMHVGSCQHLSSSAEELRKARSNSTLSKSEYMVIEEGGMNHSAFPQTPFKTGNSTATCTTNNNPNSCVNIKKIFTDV

B1: ATF-L1 (bispecific antibody)
heavy: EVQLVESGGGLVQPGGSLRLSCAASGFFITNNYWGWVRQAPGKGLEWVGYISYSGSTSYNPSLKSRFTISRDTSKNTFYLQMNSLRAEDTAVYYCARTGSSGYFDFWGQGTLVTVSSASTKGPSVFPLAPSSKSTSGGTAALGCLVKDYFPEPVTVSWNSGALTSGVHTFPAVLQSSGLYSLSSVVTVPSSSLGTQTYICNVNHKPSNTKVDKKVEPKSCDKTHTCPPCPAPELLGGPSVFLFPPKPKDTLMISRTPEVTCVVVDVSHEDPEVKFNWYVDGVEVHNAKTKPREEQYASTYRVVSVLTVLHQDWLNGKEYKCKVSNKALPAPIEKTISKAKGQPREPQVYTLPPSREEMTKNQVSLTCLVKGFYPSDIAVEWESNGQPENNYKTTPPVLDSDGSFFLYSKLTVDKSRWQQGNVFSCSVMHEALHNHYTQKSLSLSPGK
light: DIQMTQSPSSLSASVGDRVTITCRASESGGSGAKLAALKAKLAALKGGGGSAAAISCVGSPECPPKCRAQGCKNGKCMNRKCKCYYCGGGGSELAALEAELAALEAGGSGLLHWYQQKPGKAPKLLIKYASQSISGVPSRFSGSGSGTDFTLTISSLQPEDFATYYCQQGNSLPNTFGQGTKVEIKRTVAAPSVFIFPPSDEQLKSGTASVVCLLNNFYPREAKVQWKVDNALQSGNSQESVTEQDSKDSTYSLSSTLTLSKADYEKHKVYACEVTHQGLSSPVTKSFNRGEC
As to B1, the “IC50, Flipr potassium current fluorescence detection” value in test [1] worked out at 0.7 nM. Besides, the “IC50, cell adhesion assay (CellTiter-Glo)” value (from here on “IC50, cell adhesion assay”) in test [2] was 0.173 µg/ml and 1.09 nM.

B2: ATF-L3 (bispecific antibody)
heavy: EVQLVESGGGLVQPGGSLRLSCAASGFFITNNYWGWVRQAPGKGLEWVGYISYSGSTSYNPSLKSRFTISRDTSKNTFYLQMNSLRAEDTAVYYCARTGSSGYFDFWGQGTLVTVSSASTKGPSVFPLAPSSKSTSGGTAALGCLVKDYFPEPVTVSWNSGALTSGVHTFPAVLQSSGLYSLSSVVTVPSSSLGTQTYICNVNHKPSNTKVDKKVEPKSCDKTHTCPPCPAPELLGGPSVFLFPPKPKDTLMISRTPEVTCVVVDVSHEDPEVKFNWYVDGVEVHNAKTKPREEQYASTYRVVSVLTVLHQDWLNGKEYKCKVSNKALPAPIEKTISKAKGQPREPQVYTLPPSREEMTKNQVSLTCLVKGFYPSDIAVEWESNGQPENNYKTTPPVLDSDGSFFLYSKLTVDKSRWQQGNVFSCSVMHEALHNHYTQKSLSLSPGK
light: DIQMTQSPSSLSASVGDRVTITCRASESVDDLLHWYQQKPGKAPKLLIKYASQSISGVPSRFSGSGSGTDFTLTISSLQPEDFATYYCQQGGGSGAKLAALKAKLAALKGGGGSAAAISCVGSPECPPKCRAQGCKNGKCMNRKCKCYYCGGGGSELAALEAELAALEAGGSGNTFGQGTKVEIKRTVAAPSVFIFPPSDEQLKSGTASVVCLLNNFYPREAKVQWKVDNALQSGNSQESVTEQDSKDSTYSLSSTLTLSKADYEKHKVYACEVTHQGLSSPVTKSFNRGEC
notes: Vm24 with linkers grafted into LCDR3 of etrolizumab; also called ATF-L3 (with LCDR3-grafted Vm24)
The term Kd denotes a measure of binding affinity in units of concentration. As to B2, the Kd with Recombinant protein α4β7 amounted to 0.0408 nM.

B3: ATF-H2 (bispecific antibody)
heavy: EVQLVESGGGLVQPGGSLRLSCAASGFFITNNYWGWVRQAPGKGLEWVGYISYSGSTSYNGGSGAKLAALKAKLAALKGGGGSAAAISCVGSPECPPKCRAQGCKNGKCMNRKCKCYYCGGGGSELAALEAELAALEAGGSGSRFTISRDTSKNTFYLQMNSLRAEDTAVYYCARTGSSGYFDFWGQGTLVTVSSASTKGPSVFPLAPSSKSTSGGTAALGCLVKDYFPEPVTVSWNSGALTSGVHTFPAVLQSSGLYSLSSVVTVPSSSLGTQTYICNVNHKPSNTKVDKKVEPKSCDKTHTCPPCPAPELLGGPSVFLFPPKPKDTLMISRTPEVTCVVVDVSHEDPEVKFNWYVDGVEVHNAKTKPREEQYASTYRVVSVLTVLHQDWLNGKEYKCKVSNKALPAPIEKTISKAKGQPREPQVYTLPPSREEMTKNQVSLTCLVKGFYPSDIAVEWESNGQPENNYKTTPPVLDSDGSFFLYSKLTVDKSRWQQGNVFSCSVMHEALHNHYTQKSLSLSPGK
light: DIQMTQSPSSLSASVGDRVTITCRASESVDDLLHWYQQKPGKAPKLLIKYASQSISGVPSRFSGSGSGTDFTLTISSLQPEDFATYYCQQGNSLPNTFGQGTKVEIKRTVAAPSVFIFPPSDEQLKSGTASVVCLLNNFYPREAKVQWKVDNALQSGNSQESVTEQDSKDSTYSLSSTLTLSKADYEKHKVYACEVTHQGLSSPVTKSFNRGEC
notes: The summary says the graft lies between 60N and 65S of heavy chain FR3; also called ATF-H2 (with HCDR2-grafted Vm24)
With B3, in test [1], the “IC50, Flipr potassium current fluorescence detection” value came out at 0.53 nM. Moreover, the “IC50, cell adhesion assay” value in test [2] is 0.072 µg/ml and 0.45 nM. In addition, the Kd with Recombinant protein α4β7 is 0.0192 nM.

B4: ATF-H3 (bispecific antibody)
heavy: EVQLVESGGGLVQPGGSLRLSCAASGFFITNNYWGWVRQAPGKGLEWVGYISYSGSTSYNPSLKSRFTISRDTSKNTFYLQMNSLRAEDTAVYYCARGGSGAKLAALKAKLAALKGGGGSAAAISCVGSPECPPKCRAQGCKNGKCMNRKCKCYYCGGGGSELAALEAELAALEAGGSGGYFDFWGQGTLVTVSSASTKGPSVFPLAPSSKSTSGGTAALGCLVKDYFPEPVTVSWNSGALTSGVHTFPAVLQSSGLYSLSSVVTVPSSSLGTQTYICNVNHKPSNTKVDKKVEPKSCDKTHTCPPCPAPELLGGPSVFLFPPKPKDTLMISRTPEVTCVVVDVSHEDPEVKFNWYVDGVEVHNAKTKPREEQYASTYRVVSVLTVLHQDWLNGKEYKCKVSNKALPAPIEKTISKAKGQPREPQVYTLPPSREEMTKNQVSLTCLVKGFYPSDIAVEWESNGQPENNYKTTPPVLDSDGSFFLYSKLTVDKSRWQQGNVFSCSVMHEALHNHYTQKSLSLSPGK
light: B3 light
notes: Vm24 with linkers grafted into HCDR3 of etrolizumab; also called ATF-H3 (with HCDR3-grafted Vm24)
Turning to B4, in the test with Recombinant protein α4β7, the Kd came to 13.9 nM.

B5: ATF-H1 (bispecific antibody)
heavy: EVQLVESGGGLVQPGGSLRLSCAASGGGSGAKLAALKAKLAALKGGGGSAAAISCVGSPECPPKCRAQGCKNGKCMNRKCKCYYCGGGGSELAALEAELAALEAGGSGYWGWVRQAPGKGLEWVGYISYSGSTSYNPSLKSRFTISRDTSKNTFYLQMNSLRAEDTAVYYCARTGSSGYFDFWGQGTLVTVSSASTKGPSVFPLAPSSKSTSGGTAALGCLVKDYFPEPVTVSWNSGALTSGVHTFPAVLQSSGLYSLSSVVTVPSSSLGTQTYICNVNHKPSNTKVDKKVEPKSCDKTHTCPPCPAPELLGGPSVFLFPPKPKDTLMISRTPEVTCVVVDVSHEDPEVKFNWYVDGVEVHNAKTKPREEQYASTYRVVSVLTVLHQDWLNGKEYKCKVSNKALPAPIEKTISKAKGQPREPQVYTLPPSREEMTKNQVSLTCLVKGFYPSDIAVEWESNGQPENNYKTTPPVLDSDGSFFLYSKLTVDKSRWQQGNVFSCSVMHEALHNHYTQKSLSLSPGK
light: B3 light
notes: Vm24 with linkers grafted into HCDR1 of etrolizumab; also called ATF-H1 (with HCDR1-grafted Vm24)
Turning to B5, the “IC50, Flipr potassium current fluorescence detection” value in test [1] came to 0.72 nM. In the test with Recombinant protein α4β7, the binding result is “no binding”.

B6: ATF-L2 (bispecific antibody)
heavy: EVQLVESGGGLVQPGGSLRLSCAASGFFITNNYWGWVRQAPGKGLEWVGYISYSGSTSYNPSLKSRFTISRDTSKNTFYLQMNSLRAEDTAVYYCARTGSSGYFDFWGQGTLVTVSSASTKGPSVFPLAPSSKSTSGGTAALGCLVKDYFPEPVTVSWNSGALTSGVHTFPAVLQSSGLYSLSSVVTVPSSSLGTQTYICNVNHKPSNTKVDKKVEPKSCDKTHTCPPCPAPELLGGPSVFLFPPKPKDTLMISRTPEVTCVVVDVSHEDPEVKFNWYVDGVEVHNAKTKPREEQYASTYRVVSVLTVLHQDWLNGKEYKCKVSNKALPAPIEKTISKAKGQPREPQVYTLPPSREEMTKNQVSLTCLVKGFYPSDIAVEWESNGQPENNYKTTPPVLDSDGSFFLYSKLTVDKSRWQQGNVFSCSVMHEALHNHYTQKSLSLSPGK
light: DIQMTQSPSSLSASVGDRVTITCRASESVDDLLHWYQQKPGKAPKLLIKYASQSISGGSGAKLAALKAKLAALKGGGGSAAAISCVGSPECPPKCRAQGCKNGKCMNRKCKCYYCGGGGSELAALEAELAALEAGGSGSRFSGSGSGTDFTLTISSLQPEDFATYYCQQGNSLPNTFGQGTKVEIKRTVAAPSVFIFPPSDEQLKSGTASVVCLLNNFYPREAKVQWKVDNALQSGNSQESVTEQDSKDSTYSLSSTLTLSKADYEKHKVYACEVTHQGLSSPVTKSFNRGEC
notes: The summary says the graft lies between 56S and 60S of light chain FR3; also called ATF-L2 (with LCDR2-grafted Vm24)
As to B6, in the test with Recombinant protein α4β7, the Kd turned out to be 0.0359 nM.

B7: Etrolizumab (antibody, V domains shown)
VH: EVQLVESGGGLVQPGGSLRLSCAASGFFITNNYWGWVRQAPGKGLEWVGYISYSGSTSYNPSLKSRFTISRDTSKNTFYLQMNSLRAEDTAVYYCARTGSSGYFDFWGQGTLVTVSS
VL: DIQMTQSPSSLSASVGDRVTITCRASESVDDLLHWYQQKPGKAPKLLIKYASQSISGVPSRFSGSGSGTDFTLTISSLQPEDFATYYCQQGNSLPNTFGQGTKVEIKR
With B7, in test [2], the “IC50, cell adhesion assay” value is 0.06 µg/ml and 0.42 nM.

Source of the values: patent US20240417433A1 (NANTONG YICHEN BIOPHARMA, published 2024).
